{
  "source": "patent US11306137B2",
  "about": "“Antibody binding agents that bind Acinetobactor and uses thereof” (priority 2015, dated 2022)",
  "molecules": {"B1": {"name": "C8: mouse IgG1-kappa monoclonal antibody from hybridoma 9.1C8 (ATCC PTA-122177); light chain SEQ ID NO:2, heavy chain SEQ ID NO:3 (antibody, listed as Mus musculus, V domains shown)", "VH": "EVQLQQSGPELVKPGASVKISCKASGYSFTGYTMNWVKQSHGKSLEWIGRINPYNGDSFYNQKFKGKATLTVDKSSNIAHMEFLSLTSEDSAVYYCGRSGDGPWFAYWGQGTLVTVSA", "VL": "LPLSLPVSLGDQASISCRSSQSIVHNNGNTYLEWYLQKPGQSPKLLIYKVSNRFSGVPDRFSGSGSGTDFTLKISRVEAEDLGVYYCFQGSHVPLTFGAGTKLEIKGSRS"}},
  "key": {"A. baumannii HUMC1 [1]": {"tested_on": "A. baumannii HUMC1", "experiment": "Confocal immunofluorescence surface binding", "conditions": "FIG. 5", "experimental": "To detect surface binding of A. baumannii by purified C8 MAb, mid-log-growth A. baumannii strains were washed twice, resuspended in PBS, stained with NucBlue Reagent (Life Technologies) for 30 min at 37° C., pelleted, and washed again in PBS. Primary antibody, either C8 MAb or Isotype Control IgG1 (R&D Systems, Product #MAB002), was added to 100 μL of bacteria to a final concentration of 100 μg/mL and incubated for 30 min at 37° C. Bacteria were washed twice and resuspended in secondary antibody goat anti-mouse IgG AlexaFluor647 (Life Technologies, Product #A21235) at a final concentration of 2 μg/mL for 20 min at 37° C. After washing twice with PBS, bacteria was resuspended in 50 μL PBS, and 10 μL drops were placed on slides and mounted with cover slips and nail polish. Images were taken using a Spinning Disc Confocal Microscope (Zeiss Axiolmager)."}, "A. baumannii HUMC1 [2]": {"tested_on": "A. baumannii HUMC1", "experiment": "In vitro complement susceptibility (bacterial growth in mouse serum)", "format": "cell-based", "conditions": "heat-inactivated or complement-active CD-1 mouse serum; FIG. 6A", "experimental": "Overnight cultures of A. baumannii were subcultured to log-phase, washed in PBS, and resuspended at 1×10^6 CFUs/mL in 3 mL HBSS containing 50% CD-1 mouse serum that had been either heat-inactivated at 57° C. for 30 minutes or not. Tubes were shaken (200 rpm) for 2 hr at 37° C. and bacterial expansion was quantified by serially diluting cultures on TSA plates and counting CFUs."}, "[3]": {"tested_on": "pili preparations from A. baumannii", "experiment": "Western blot of pili preparations (proteinase K or periodate treated)", "format": "binding", "experimental": "Since it appeared that C8 bound to the pili on the surface of the bacteria, an established protocol was to sheer pili off the bacteria in an attempt to more accurately determine the epitope targeted by C8. To distinguish protein from carbohydrate targets, the pili preparation was divided into three portions: one fraction was treated with proteinase K, one fraction was treated with periodate to degrade carbohydrates, and one fraction was untreated. The pili preparations were run in a western blot and stained with C8 or isotype control MAb."}},
  "data": [
    {"molecule": "B1", "values": [
      {"measurement": "surface binding by immunofluorescent staining", "setting": "A. baumannii HUMC1 [1]", "result": "confirmed diffuse surface binding"},
      {"measurement": "impact on bacterial growth in vitro", "setting": "A. baumannii HUMC1 [2]", "result": "minimal impact"},
      {"measurement": "western blot signal, periodate treated pili fraction", "setting": "[3]; periodate treatment (degrades carbohydrates)", "result": "eliminated completely"},
      {"measurement": "western blot signal, proteinase K treated pili fraction", "setting": "[3]; proteinase K treatment", "result": "unchanged"},
      {"measurement": "western blot signal, untreated pili fraction", "setting": "[3]; untreated", "result": "large conglomeration at the top of the gel"},
      {"measurement": "epitope / target on A. baumannii", "setting": "[3]; western blots and flow binding to a capsule-mutant bacterial strain", "result": "binds to capsular polysaccharide"}
    ]}
  ]
}
